T1: recombinant human GPC2-His protein (human, UniProt Q8N158 24-554, limits assumed)
T1 construct: Bought protein; The SPR paragraph gives no catalogue number for GPC2-His; also called recombinant Human Glypican 2 Protein; recombinant human GPC2 protein; not shown: His tag
T1 sequence (looked up): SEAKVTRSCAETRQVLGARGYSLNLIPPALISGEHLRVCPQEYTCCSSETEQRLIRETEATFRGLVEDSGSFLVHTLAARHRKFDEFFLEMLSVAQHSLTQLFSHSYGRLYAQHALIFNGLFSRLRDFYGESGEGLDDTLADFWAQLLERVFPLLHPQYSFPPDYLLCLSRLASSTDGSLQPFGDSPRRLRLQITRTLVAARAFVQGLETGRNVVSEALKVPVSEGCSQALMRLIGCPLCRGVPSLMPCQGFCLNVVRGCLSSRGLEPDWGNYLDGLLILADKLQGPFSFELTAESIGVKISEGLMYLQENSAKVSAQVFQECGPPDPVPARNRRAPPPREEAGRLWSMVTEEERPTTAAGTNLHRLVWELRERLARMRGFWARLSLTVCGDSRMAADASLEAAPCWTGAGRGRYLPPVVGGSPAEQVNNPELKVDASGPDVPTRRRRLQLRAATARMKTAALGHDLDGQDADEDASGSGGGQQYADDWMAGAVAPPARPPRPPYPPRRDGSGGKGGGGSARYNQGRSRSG

T2: recombinant mouse GPC2-His (mouse, UniProt Q8BKV1 22-556, limits assumed)
T2 construct: Bought protein; also called murine GPC2; RD System Cat #2355-GP; not shown: His tag
T2 sequence (looked up): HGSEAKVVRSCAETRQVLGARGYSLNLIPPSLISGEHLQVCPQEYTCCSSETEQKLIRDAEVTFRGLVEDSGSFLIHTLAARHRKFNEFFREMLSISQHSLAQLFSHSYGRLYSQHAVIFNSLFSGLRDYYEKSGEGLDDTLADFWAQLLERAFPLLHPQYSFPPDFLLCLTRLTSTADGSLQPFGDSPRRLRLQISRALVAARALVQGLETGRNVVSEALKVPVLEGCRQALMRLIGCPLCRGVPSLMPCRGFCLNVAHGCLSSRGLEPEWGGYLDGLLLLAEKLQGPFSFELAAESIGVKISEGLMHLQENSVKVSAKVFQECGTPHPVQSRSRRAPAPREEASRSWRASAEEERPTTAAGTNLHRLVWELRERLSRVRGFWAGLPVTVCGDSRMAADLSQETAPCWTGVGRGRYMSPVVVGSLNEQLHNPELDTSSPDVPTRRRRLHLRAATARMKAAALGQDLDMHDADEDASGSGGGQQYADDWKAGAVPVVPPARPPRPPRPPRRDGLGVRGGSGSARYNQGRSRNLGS

T3: recombinant human GPC1-His (human, UniProt P35052 24-530, limits assumed)
T3 construct: Bought protein; also called RD System Cat #4519-GP; not shown: His tag
T3 sequence (looked up): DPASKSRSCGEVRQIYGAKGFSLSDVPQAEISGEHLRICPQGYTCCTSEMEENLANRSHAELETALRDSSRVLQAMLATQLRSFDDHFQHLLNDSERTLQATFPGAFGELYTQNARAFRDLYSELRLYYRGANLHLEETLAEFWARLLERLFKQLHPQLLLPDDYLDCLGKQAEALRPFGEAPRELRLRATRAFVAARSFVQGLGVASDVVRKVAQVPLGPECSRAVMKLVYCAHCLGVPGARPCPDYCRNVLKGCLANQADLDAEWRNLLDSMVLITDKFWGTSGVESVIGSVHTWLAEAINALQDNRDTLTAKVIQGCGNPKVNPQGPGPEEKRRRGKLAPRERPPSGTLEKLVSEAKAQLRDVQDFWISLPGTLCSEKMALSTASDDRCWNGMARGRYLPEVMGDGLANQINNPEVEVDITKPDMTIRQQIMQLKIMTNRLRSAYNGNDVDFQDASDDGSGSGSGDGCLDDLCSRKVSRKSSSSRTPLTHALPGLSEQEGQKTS


What was measured:
[1] = biological target: T1, recombinant human GPC2-His protein; assay: SPR, Biacore T200, GPC2-His amine-coupled to CM5 chip, VHH-hIgG1Fc as analyte, 1:1 model
Protocol: Each of the exemplary anti-GPC2 VHH sequences was cloned into a vector comprising a human IgG1Fc fragment (hlgG1Fc) sequence to facilitate recombinant expression of anti-GPC2 VHH-hlgG1Fc. Recombinant proteins were obtained and purified for SPR assays. The affinity of each anti-GPC2 VHH-hIgG1Fc for GPC2 was determined by SPR using a BIACORE® T200 analytical system (GE Healthcare). Briefly, recombinant human GPC2-His protein was covalently coupled to a CM5(s) sensor chip using an amine coupling kit. Exemplary VHH-hIgG1Fc proteins were serially diluted in running buffer (10 mM HEPES, 150 mM NaCl, 3 mM EDTA, 0.05% Tween-20, pH 7.4) and injected over the chip cell at a flowrate of 100 μL/min for 100 seconds followed by buffer-only injection for 300 seconds to allow for antibody dissociation. The dissociation […] (KD) were determined using the BIACORE® T200 evaluation software version 3.0 (Langmuir binding, local fit, 1:1 binding model).

[2] = biological target: T2, recombinant mouse GPC2-His; assay: ELISA, plate coated with 2 ug/mL rmGPC2, VHH-hIgG1Fc detected with HRP goat anti-human IgG, OD450
Protocol: (§1) To evaluate the specificity of humanized anti-GPC2 VHH5 to recombinant human GPC2 protein, an ELISA-based binding assay was conducted to determine the differential target proteins binding of anti-GPC2 VHH5. Briefly, microplates were coated with 2 μg/mL recombinant human GPC1-His (RD System, Cat #4519-GP), GPC2-His (RD System, Cat #2304-GP), GPC3-His (ACRO, Cat #GP3-H5223), GPC4-Fc (RD System, Cat #9195-GP), GPC5-His (RD System, Cat #2607-G5/CF), GPC6-His (RD System, Cat #2845-GP) or recombinant mouse GPC2-His (RD System, Cat #2355-GP) proteins. Recombinant human protein coated plates were blocked with skim milk. Serially diluted humanized VHH-hIgG1Fc recombinant antibodies were added to each well of the plates and incubated at 4° C. for 1.5 h. Samples were further labelled with HRP-conjugated goat anti human IgG (H+L) secondary antibody (Genescript, Cat #A00166-1) and signal was developed with 3,3′,5,5′-Tetramethylbenzidine (TMB) substrate according to manufacturer's instruction. For the GPC4, VHH-His recombinant antibodies and anti-His tag secondary antibody (Genescript, Cat #A00612) were added to the GPC4-Fc coated plates instead. Optic density at 450 nm was measured by plate reader.

[3] = biological target: T3, recombinant human GPC1-His; assay: ELISA, plate coated with 2 ug/mL rhGPC1-his, VHH-hIgG1Fc detected with HRP goat anti-human IgG, OD450
Protocol: as §1

Kd [1] [nM]	koff [1] [s⁻¹]	kon [1] [M⁻¹ s⁻¹]	binding result [2]	binding result [3]	Binder
0.37	0.00019	530000	no binding (tested: about 300 nM)	no binding (tested: about 300 nM)	AS79236VH6-hIgG1Fc (Fc fusion, also called anti-GPC2 VHH-hIgG1Fc; not shown: human IgG1 Fc fragment (hIgG1Fc)) EVQLVESGGGLVQPGGSLRLSCAVSGYTYSSYCMAWFRQAPGKGLEGVASIDAGGRTTYVDSVKGRFTISKDNAKNSLYLQMNSLRAEDTAMYYCAVDVRTRCGGTWDGEAVYFPYWGQGTLVTVSS
0.82	0.00017	200000	no binding (tested: about 300 nM)	no binding (tested: about 300 nM)	AS78117VH4-hIgG1Fc (Fc fusion, also called anti-GPC2 VHH-hIgG1Fc; not shown: human IgG1 Fc fragment (hIgG1Fc)) EVQLVESGGGLVQPGGSLRLSCIVSRYTYATYSMAWFRQAPGKGLEGVSGLDSVGATGYAESVKGRFTISRDNSKNTLYLQMNSLRAEDTAVYYCVVDPASAKVTYGSWSTPSYAYWGQGTLVTVSS
0.27	0.00011	390000	no binding (tested: about 300 nM)	no binding (tested: about 300 nM)	AS70950VH6-hIgG1Fc (Fc fusion, also called anti-GPC2 VHH-hIgG1Fc; not shown: human IgG1 Fc fragment (hIgG1Fc)) EVQLVESGGGLVQPGGSLRLSCAISEFTYKNTCVGWFRQAPGKGREGVAAIDSDGNTNYVDSVKGRFTISQDNSKNTVYLQMNSLRAEDTAMYYCAAGAYCGRLLLWIGNYAYWGQGTLVTVSS

Source: patent US20230136252A1 (NANJING LEGEND BIOTECH, published 2023)
